± gives the standard error. For some assays here: Variants at the floor of the assay were thinned out.
B1: glmS ribozyme (parent)
chain: AUAAAAGCGCCAGAACUACAGAAAUGUAGUUGACGAGGAGGAGGUUUAUCGAAUUUUCGGCGGAUGCCUCCAAA

Experiments:
Settings in all cases: with glucosamine-6-phosphate
glucosamine-6-phosphate [1] = variants of: B1; experiment: kcat; higher = faster cleavage; RNA array
Method in brief: (§1)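 Barcoded ribozyme variants on sequenced MiSeq chips were transcribed in situ by E. coli RNA polymerase and followed at 37 °C through a hybridised Cy3 probe. Glucosamine-6-phosphate at 40 μM to 10 mM in HEPES/KCl/Mg(OAc)2 buffer was flowed in, and tiles were imaged over ~14 h. Signals were normalised to baseline and to non-cleaving reference variants, and per-tile medians were fit to one- or two-exponential decays to give kobs. Weighted Michaelis–Menten fits across concentrations gave kcat and KM.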

glucosamine-6-phosphate [2] = variants of: B1; experiment: self-cleavage kobs at 2500 uM GlcN6P; higher = faster cleavage; RNA array
Method in brief: as §1

glucosamine-6-phosphate [3] = variants of: B1; experiment: self-cleavage kobs at 10000 uM GlcN6P; higher = faster cleavage; RNA array
Method in brief: as §1

glucosamine-6-phosphate [4] = variants of: B1; experiment: KM; higher = weaker cofactor use; RNA array
Method in brief: as §1

glucosamine-6-phosphate [5] = variants of: B1; experiment: self-cleavage kobs at 640 uM GlcN6P; higher = faster cleavage; RNA array
Method in brief: as §1

glucosamine-6-phosphate [6] = variants of: B1; experiment: self-cleavage kobs at 40 uM GlcN6P; higher = faster cleavage; RNA array
Method in brief: as §1

glucosamine-6-phosphate [7] = variants of: B1; experiment: self-cleavage kobs at 160 uM GlcN6P; higher = faster cleavage; RNA array
Method in brief: as §1

Variant	kcat (glucosamine-6-phosphate [1])	self-cleavage kobs at 2500 uM GlcN6P (glucosamine-6-phosphate [2])	self-cleavage kobs at 10000 uM GlcN6P (glucosamine-6-phosphate [3])	KM (glucosamine-6-phosphate [4])	self-cleavage kobs at 640 uM GlcN6P (glucosamine-6-phosphate [5])	self-cleavage kobs at 40 uM GlcN6P (glucosamine-6-phosphate [6])	self-cleavage kobs at 160 uM GlcN6P (glucosamine-6-phosphate [7])
A36C U54G	< 1e-05 s⁻¹	< 1e-05 s⁻¹	< 1e-05 s⁻¹	–	–	–	–
C16A G32C	9.38e-05 ± 2.3e-06 s⁻¹	5.99e-05 ± 1.7e-05 s⁻¹	8.41e-05 ± 1e-05 s⁻¹	1220 ± 140 µM	3.44e-05 ± 1.6e-05 s⁻¹	–	–
A48C C68U	8.75e-05 ± 8.5e-06 s⁻¹	6.35e-05 ± 1.3e-05 s⁻¹	7.54e-05 ± 1.1e-05 s⁻¹	1310 ± 540 µM	–	< 1e-05 s⁻¹	–
C16U U57G C61A	1.37e-05 ± 2e-06 s⁻¹	–	–	–	–	–	–
U56A U65A	0.00156 ± 0.00058 s⁻¹	0.000569 ± 9.2e-05 s⁻¹	0.00148 ± 0.00021 s⁻¹	–	0.000368 ± 5.1e-05 s⁻¹	4.51e-05 ± 1.1e-05 s⁻¹	7.79e-05 ± 1.3e-05 s⁻¹
U56A U65C	0.00025 ± 5.7e-05 s⁻¹	0.000177 ± 4.4e-05 s⁻¹	0.000248 ± 4.7e-05 s⁻¹	–	0.000242 ± 6.3e-05 s⁻¹	–	–
G41U A42G	0.000998 ± 0.00021 s⁻¹	0.000816 ± 0.00012 s⁻¹	0.000843 ± 0.00012 s⁻¹	1240 ± 450 µM	0.000285 ± 6.2e-05 s⁻¹	4.79e-05 ± 9.1e-06 s⁻¹	9.47e-05 ± 2e-05 s⁻¹
C8U C10U	< 1e-05 s⁻¹	–	–	–	< 1e-05 s⁻¹	< 1e-05 s⁻¹	–
C67G C68U	7.04e-05 ± 1.8e-06 s⁻¹	6.33e-05 ± 6e-06 s⁻¹	6.92e-05 ± 6.7e-06 s⁻¹	234 ± 34 µM	5.35e-05 ± 6.6e-06 s⁻¹	–	2.51e-05 ± 1e-05 s⁻¹
A6G U54G	0.000277 ± 1.2e-05 s⁻¹	0.000179 ± 2.9e-05 s⁻¹	0.000251 ± 3.1e-05 s⁻¹	1230 ± 140 µM	9.48e-05 ± 1.7e-05 s⁻¹	–	–
C10U G29C	1.05e-05 ± 2.4e-06 s⁻¹	–	–	–	–	–	–
C11A U55C	0.000132 ± 2.4e-05 s⁻¹	0.000125 ± 4.2e-05 s⁻¹	0.000109 ± 2.1e-05 s⁻¹	–	3.19e-05 ± 1.5e-05 s⁻¹	–	–
A6C A53U	8.96e-05 ± 2.4e-06 s⁻¹	3.64e-05 ± 7.4e-06 s⁻¹	6.61e-05 ± 1.1e-05 s⁻¹	3600 ± 220 µM	–	–	–
U46G G66A C70G	0.000845 ± 0.00032 s⁻¹	0.00046 ± 0.00016 s⁻¹	0.000907 ± 0.00016 s⁻¹	–	0.000267 ± 6.1e-05 s⁻¹	6.36e-05 ± 1.7e-05 s⁻¹	–
A12U C16A	0.00549 ± 0.00094 s⁻¹	0.00417 ± 0.00091 s⁻¹	0.00413 ± 0.00074 s⁻¹	2210 ± 520 µM	0.00128 ± 0.00027 s⁻¹	9.36e-05 ± 1.5e-05 s⁻¹	–
G32U A53G	0.00107 ± 0.00015 s⁻¹	0.000375 ± 5.5e-05 s⁻¹	0.000847 ± 7.5e-05 s⁻¹	3390 ± 750 µM	0.000174 ± 1.8e-05 s⁻¹	–	5.42e-05 ± 9e-06 s⁻¹
